This is an account of results in patent US20260242419A1, “A CYCLIC PEPTIDE FOR TRAPPING INTERLEUKIN-1 BETA” (Merck Sharp & Dohme LLC, priority 2023, published 2026).

Non-standard residues stand in square brackets, D forms with d. Phe(4-(5-CO2H-2-pyrimidyl)) = N[C@@H](Cc1ccc(-c2ncc(C(=O)O)cn2)cc1)C(=O)O; Phe(4-(4-Ac-piperazinyl)) = CC(=O)N1CCN(c2ccc(C[C@H](N)C(=O)O)cc2)CC1; Trp(4-Cl)(βS-Me) = C[C@@H](c1c[nH]c2cccc(Cl)c12)[C@H](N)C(=O)O; dPro(4R-(4-pyridylmethyl)) = O=C(O)[C@H]1C[C@@H](Cc2ccncc2)CN1; Trp(βS-Me,4-F) = C[C@@H](c1c[nH]c2cccc(F)c12)[C@H](N)C(=O)O; Bip(4'-COOH) = N[C@@H](Cc1ccc(-c2ccc(C(=O)O)cc2)cc1)C(=O)O; Ala(1-bicyclo(1.1.1)pentyl) = N[C@@H](CC12CC(C1)C2)C(=O)O; Phe(2-Cl,4-COOH) = N[C@@H](Cc1ccc(C(=O)O)cc1Cl)C(=O)O; 1Nal(3S-Me) = C[C@@H](c1cccc2ccccc12)[C@H](N)C(=O)O; Ala(pyrimidin-5-yl) = N[C@@H](Cc1cncnc1)C(=O)O; Phe(4-COOH) = N[C@@H](Cc1ccc(C(=O)O)cc1)C(=O)O; Pro(cis-4-F) = O=C(O)[C@@H]1C[C@H](F)CN1; Ala(4-THP) = N[C@@H](CC1CCOCC1)C(=O)O; d(αMeD) = C[C@@](N)(CC(=O)O)C(=O)O; 4Pal = N[C@@H](Cc1ccncc1)C(=O)O; aThr = C[C@H](O)[C@H](N)C(=O)O; d(αMeS) = C[C@@](N)(CO)C(=O)O; Cba = N[C@@H](CC1CCC1)C(=O)O; Dab = NCC[C@H](N)C(=O)O; Aib = CC(C)(N)C(=O)O

This experiment deals with Recombinant human IL-1β (BioLegend 579404) (human, UniProt P01584 117-269). The experiment in a line: cell-based or functional assay.
Regarding cyclo([Phe(4-(4-Ac-piperazinyl))][4Pal][Phe(4-COOH)]G[Pro(cis-4-F)][Trp(βS-Me,4-F)][Aib]SW[d(αMeS)][Ala(pyrimidin-5-yl)]Q[Dab]G[dPro(4R-(4-pyridylmethyl))]) (ring closure inferred) [SEQ ID NO 350], the “MRC5 IC50” value was 0.02 nM.

cyclo([Bip(4'-COOH)][4Pal][Phe(4-COOH)]G[Pro(cis-4-F)][Trp(βS-Me,4-F)][Aib][aThr]W[d(αMeS)][aThr]Q[Dab]G[dPro(4R-(4-pyridylmethyl))]) (ring closure inferred) [SEQ ID NO 352]: the “MRC5 IC50” value is 0.023 nM.

Turning to cyclo([Bip(4'-COOH)][Ala(1-bicyclo(1.1.1)pentyl)][Phe(4-COOH)]G[Pro(cis-4-F)][Trp(βS-Me,4-F)][Aib]SW[d(αMeD)][Cba]Q[Dab]G[dPro(4R-(4-pyridylmethyl))]) (ring closure inferred) [SEQ ID NO 348], the “MRC5 IC50” value worked out at 0.018 nM.

Regarding cyclo([Bip(4'-COOH)][4Pal][Phe(4-COOH)]G[Pro(cis-4-F)][Trp(βS-Me,4-F)][Aib]SW[d(αMeS)]LQ[Dab]G[dPro(4R-(4-pyridylmethyl))]) (ring closure inferred) [SEQ ID NO 347], the “MRC5 IC50” value is 0.025 nM.

For cyclo([Phe(4-(5-CO2H-2-pyrimidyl))][4Pal][Phe(4-COOH)]G[Pro(cis-4-F)][Trp(βS-Me,4-F)][Aib]SW[d(αMeD)][Ala(4-THP)]Q[Dab]G[dPro(4R-(4-pyridylmethyl))]) (ring closure inferred) [SEQ ID NO 351], the “MRC5 IC50” value is 0.016 nM.

Turning to cyclo([Bip(4'-COOH)][4Pal][Phe(2-Cl,4-COOH)]G[Pro(cis-4-F)][1Nal(3S-Me)][Aib]SW[d(αMeD)][aThr]Q[Dab]G[dPro(4R-(4-pyridylmethyl))]) (ring closure inferred) [SEQ ID NO 354], the “MRC5 IC50” value came out at 0.014 nM.

On to cyclo([Bip(4'-COOH)][4Pal][Phe(4-COOH)]G[Pro(cis-4-F)][1Nal(3S-Me)][Aib]SW[d(αMeD)][aThr]Q[Dab]G[dPro(4R-(4-pyridylmethyl))]) (ring closure inferred) [SEQ ID NO 357], for which the “MRC5 IC50” value came to 0.017 nM.

cyclo([Bip(4'-COOH)][4Pal][Phe(2-Cl,4-COOH)]G[Pro(cis-4-F)][Trp(βS-Me,4-F)][Aib]SW[d(αMeD)][aThr]Q[Dab]G[dPro(4R-(4-pyridylmethyl))]) (ring closure inferred) [SEQ ID NO 356]: the “MRC5 IC50” value turned out to be 0.011 nM.

In the case of cyclo([Bip(4'-COOH)][4Pal][Phe(2-Cl,4-COOH)]G[Pro(cis-4-F)][Trp(4-Cl)(βS-Me)][Aib]SW[d(αMeD)][aThr]Q[Dab]G[dPro(4R-(4-pyridylmethyl))]) (ring closure inferred) [SEQ ID NO 355], the “MRC5 IC50” value was found to be 0.013 nM.

On to cyclo([Bip(4'-COOH)][4Pal][Phe(4-COOH)]G[Pro(cis-4-F)][Trp(βS-Me,4-F)][Aib][aThr]W[d(αMeD)][Ala(4-THP)]Q[Dab]G[dPro(4R-(4-pyridylmethyl))]) (ring closure inferred) [SEQ ID NO 353], for which the “MRC5 IC50” value turned out to be 0.017 nM.

Take cyclo([Bip(4'-COOH)][Ala(1-bicyclo(1.1.1)pentyl)][Phe(4-COOH)]G[Pro(cis-4-F)][Trp(βS-Me,4-F)][Aib]SW[d(αMeD)]LQ[Dab]G[dPro(4R-(4-pyridylmethyl))]) (ring closure inferred) [SEQ ID NO 349]: the “MRC5 IC50” value came out at 0.017 nM.
